Data: the Immune Epitope Database (IEDB)
Values belong to the sequence of their own block, whether it stands above or below them.

Legend:
[1] = target: HLA-C*08:02; experiment: IEDB peptide-MHC binding, purified MHC/direct/fluorescence; filed as Kd, often an IC50 or EC50 that approximates it; ≥ and ≤ were set here for values at or beyond the usual limits of such assays
[2] = target: HLA-A*01:01; experiment: IEDB peptide-MHC binding, purified MHC/competitive/fluorescence; filed as Kd, often an IC50 or EC50 that approximates it; ≥ and ≤ were set here for values at or beyond the usual limits of such assays; settings: source organism: Yersinia pestis Antiqua
[3] = target: HLA-A*03:01; experiment: as above; settings: source organism: Yersinia pestis Antiqua
[4] = target: HLA-B*35:01; experiment: as above; settings: source organism: Yersinia pestis Antiqua
[5] = target: HLA-A*02:01; experiment: IEDB peptide-MHC binding, purified MHC/competitive/radioactivity; ≥ and ≤ were set here for values at or beyond the usual limits of such assays
[6] = target: HLA-A*01:01; experiment: IEDB peptide-MHC binding, purified MHC/direct/fluorescence; filed as Kd, often an IC50 or EC50 that approximates it; ≥ and ≤ were set here for values at or beyond the usual limits of such assays
[7] = target: HLA-A*02:01; experiment: as above
[8] = target: HLA-A*03:01; experiment: as above
[9] = target: HLA-A*11:01; experiment: as above
[10] = target: HLA-A*24:03; experiment: as above
[11] = target: HLA-A*26:01; experiment: as above
[12] = target: HLA-A*31:01; experiment: as above
[13] = target: HLA-A*69:01; experiment: as above
[14] = target: HLA-B*07:02; experiment: as above
[15] = target: HLA-B*08:01; experiment: as above; settings: source organism: Escherichia coli O157:H7
[16] = target: HLA-B*15:01; experiment: as above
[17] = target: HLA-B*27:05; experiment: as above
[18] = target: HLA-B*35:01; experiment: as above
[19] = target: HLA-B*40:01; experiment: as above; settings: source organism: Escherichia coli O157:H7
[20] = target: HLA-B*44:02; experiment: as above; settings: source organism: Escherichia coli O157:H7
[21] = target: HLA-B*58:01; experiment: as above
[22] = target: HLA-C*03:03; experiment: as above; settings: source organism: Listeria monocytogenes EGD-e
[23] = target: HLA-A*23:01; experiment: as above
[24] = target: HLA-A*24:02; experiment: as above
[25] = target: HLA-A*26:03; experiment: as above; settings: source organism: Campylobacter jejuni subsp. jejuni CG8486
[26] = target: HLA-A*68:02; experiment: as above
[27] = target: HLA-B*15:09; experiment: as above; settings: source organism: Campylobacter jejuni subsp. jejuni CG8486
[28] = target: HLA-B*15:17; experiment: as above; settings: source organism: Campylobacter jejuni
[29] = target: HLA-B*18:01; experiment: as above
[30] = target: HLA-B*39:01; experiment: as above
[31] = target: HLA-B*57:01; experiment: as above
[32] = target: HLA-A*26:02; experiment: IEDB peptide-MHC binding, purified MHC/competitive/fluorescence; filed as Kd, often an IC50 or EC50 that approximates it; ≥ and ≤ were set here for values at or beyond the usual limits of such assays; settings: source organism: Campylobacter jejuni subsp. jejuni NCTC 11168 = ATCC 700819
[33] = target: HLA-A*26:02; experiment: IEDB peptide-MHC binding, purified MHC/direct/fluorescence; filed as Kd, often an IC50 or EC50 that approximates it; ≥ and ≤ were set here for values at or beyond the usual limits of such assays; settings: source organism: Vibrio vulnificus CMCP6
[34] = target: HLA-A*11:01; experiment: IEDB peptide-MHC binding, purified MHC/competitive/fluorescence; filed as Kd, often an IC50 or EC50 that approximates it; ≥ and ≤ were set here for values at or beyond the usual limits of such assays; settings: source organism: Vibrio vulnificus YJ016
[35] = target: HLA-B*15:17; experiment: as above; settings: source organism: Vibrio vulnificus YJ016
[36] = target: HLA-A*31:01; experiment: as above; settings: source organism: Giardia lamblia ATCC 50803
[37] = target: HLA-A*32:07; experiment: as above; settings: source organism: Giardia lamblia ATCC 50803
[38] = target: HLA-B*15:42; experiment: as above; settings: source organism: Giardia lamblia ATCC 50803
[39] = target: HLA-B*45:06; experiment: as above; settings: source organism: Giardia lamblia ATCC 50803
[40] = target: HLA-B*83:01; experiment: as above; settings: source organism: Giardia lamblia ATCC 50803
[41] = source organism: Escherichia coli O157:H7
[42] = source organism: Escherichia coli
[43] = source organism: Salmonella enterica subsp. enterica serovar Typhimurium
[44] = source organism: Campylobacter jejuni
[45] = source organism: Vibrio vulnificus
[46] = source organism: Vibrio vulnificus CMCP6

Sequence: FVADSTPLY
Kd ([1]; source organism: Yersinia pestis Antiqua): ≥ 20000 nM | Kd [2]: 1.8 nM | Kd [3]: ≥ 20 µM | Kd [4]: ≤ 0.1 nM

IC50 ([5]; source organism: Homo sapiens): 408 nM
Sequence: RTFSPTYGL

Sequence: DLNTSAGFPYV
IC50 ([5]; source organism: Rhinovirus C): 500 nM

Kd [6, 41]: ≥ 20 µM | Kd [7, 41]: ≥ 20 µM | Kd [8, 41]: ≥ 20 µM | Kd [9, 41]: ≥ 20 µM | Kd [10, 42]: ≥ 20 µM | Kd [11, 41]: ≥ 20 µM | Kd [12, 41]: ≥ 20 µM | Kd [13, 41]: ≥ 20 µM | Kd [14, 42]: 7.81 µM | Kd [15]: ≥ 20 µM | Kd [16, 41]: ≥ 20 µM | Kd [17, 41]: ≥ 20 µM | Kd [18, 42]: 99.4 nM | Kd [19]: ≥ 20 µM | Kd [20]: ≥ 20 µM | Kd [21, 41]: ≥ 20 µM
Sequence: DPRDDLSGM

Sequence: ATISYRIKL
Kd [6, 41]: ≥ 20 µM | Kd [7, 43]: 0.106 µM | Kd [8, 41]: ≥ 20 µM | Kd [9, 43]: 0.0546 µM | Kd [11, 43]: 2.64 µM | Kd [12, 41]: ≥ 20 µM | Kd [13, 43]: 0.0558 µM | Kd [14, 41]: ≥ 20 µM | Kd [15]: ≥ 20 µM | Kd [16, 41]: ≥ 20 µM | Kd [17, 41]: ≥ 20 µM | Kd [18, 43]: 542 nM | Kd [19]: ≥ 20 µM | Kd [20]: ≥ 20 µM | Kd [21, 41]: ≥ 20 µM

Sequence: FLPDKAIDL
Kd ([13]; source organism: Bacillus anthracis): 17 µM | Kd [22]: 20 nM | Kd ([1]; source organism: Listeria monocytogenes EGD-e): 47 nM

Sequence: WFGHLASDW
Kd [6, 44]: ≥ 20 µM | Kd [7, 44]: ≥ 20 µM | Kd [8, 44]: ≥ 20 µM | Kd [9, 44]: ≥ 20 µM | Kd [23, 44]: 340 nM | Kd [24, 44]: 1.6 µM | Kd [10, 44]: 0.0215 µM | Kd [25]: ≥ 20 µM | Kd [12, 44]: ≥ 20 µM | Kd [26, 44]: ≥ 20 µM | Kd [13, 44]: ≥ 20 µM | Kd [14, 44]: ≥ 20 µM | Kd [16, 44]: 7 µM | Kd [27]: ≥ 20 µM | Kd [28]: ≥ 20 µM | Kd [29, 44]: ≥ 20 µM | Kd [17, 44]: ≥ 20 µM | Kd ([30]; source organism: Campylobacter jejuni subsp. jejuni CG8486): ≥ 20 µM | Kd [31, 44]: ≥ 20 µM | Kd [21, 44]: 13 µM | Kd [32]: ≥ 20 µM

Sequence: PHPVVVRTL
Kd [6, 45]: ≥ 20 µM | Kd [7, 45]: ≥ 20 µM | Kd [8, 45]: ≥ 20 µM | Kd [23, 45]: ≥ 20000 nM | Kd [24, 45]: 18 µM | Kd [10, 45]: ≥ 20 µM | Kd [11, 46]: ≥ 20 µM | Kd [33]: ≥ 20 µM | Kd [12, 45]: ≥ 20 µM | Kd [26, 45]: ≥ 20 µM | Kd [13, 45]: ≥ 20 µM | Kd [14, 45]: ≥ 20 µM | Kd [16, 45]: 0.775 µM | Kd [29, 45]: ≥ 20 µM | Kd [17, 45]: ≥ 20 µM | Kd [30, 46]: ≥ 20 µM | Kd [31, 45]: ≥ 20 µM | Kd [21, 45]: ≥ 20 µM | Kd [34]: ≥ 20 µM | Kd [35]: ≥ 20 µM

Kd [6, 41]: ≥ 20 µM | Kd [7, 41]: ≥ 20 µM | Kd [8, 41]: ≥ 20 µM | Kd [9, 41]: ≥ 20 µM | Kd [11, 41]: 6.55 µM | Kd [12, 41]: ≥ 20 µM | Kd [13, 41]: 0.0148 µM | Kd [14, 41]: ≥ 20 µM | Kd [15]: ≥ 20 µM | Kd [16, 41]: ≥ 20 µM | Kd [17, 41]: ≥ 20 µM | Kd [18, 41]: 105 nM | Kd [19]: ≥ 20 µM | Kd [20]: ≥ 20 µM | Kd [21, 41]: ≥ 20 µM
Sequence: DISPTNIPL

Sequence: RLYPFGSYY
Kd ([8]; source organism: Giardia lamblia ATCC 50803): ≤ 0.001 µM | Kd [36]: 31.3 nM | Kd [37]: 4.1 nM | Kd [38]: ≥ 5 µM | Kd [39]: ≥ 5 µM | Kd [40]: ≥ 5 µM

Sequence: TVLEYLVSFGV
IC50 ([5]; source organism: Hepatitis B virus): 294 nM
